# From article PMC9957003, “Functional Analyses of Rare Germline Missense BRCA1 Variants Located within and outside Protein Domains with Known Functions” (Genes, 2023)
# Where a chain is given by its changes, count along the chain named.
# T1: Flag-PALB2 WT (Partner and Localiser of BRCA2) (UniProt Q86YC2 1-1186)
# T1 construct: PALB2 (Partner and Localiser of BRCA2), wild type; printed both as Flag-PALB2 and as PALB2-Flag; also called PALB2-Flag; pDEST-FRT/T0-Flag-PALB2; source: HEK293FT, transiently co-transfected, in lysate
# T1 sequence (looked up): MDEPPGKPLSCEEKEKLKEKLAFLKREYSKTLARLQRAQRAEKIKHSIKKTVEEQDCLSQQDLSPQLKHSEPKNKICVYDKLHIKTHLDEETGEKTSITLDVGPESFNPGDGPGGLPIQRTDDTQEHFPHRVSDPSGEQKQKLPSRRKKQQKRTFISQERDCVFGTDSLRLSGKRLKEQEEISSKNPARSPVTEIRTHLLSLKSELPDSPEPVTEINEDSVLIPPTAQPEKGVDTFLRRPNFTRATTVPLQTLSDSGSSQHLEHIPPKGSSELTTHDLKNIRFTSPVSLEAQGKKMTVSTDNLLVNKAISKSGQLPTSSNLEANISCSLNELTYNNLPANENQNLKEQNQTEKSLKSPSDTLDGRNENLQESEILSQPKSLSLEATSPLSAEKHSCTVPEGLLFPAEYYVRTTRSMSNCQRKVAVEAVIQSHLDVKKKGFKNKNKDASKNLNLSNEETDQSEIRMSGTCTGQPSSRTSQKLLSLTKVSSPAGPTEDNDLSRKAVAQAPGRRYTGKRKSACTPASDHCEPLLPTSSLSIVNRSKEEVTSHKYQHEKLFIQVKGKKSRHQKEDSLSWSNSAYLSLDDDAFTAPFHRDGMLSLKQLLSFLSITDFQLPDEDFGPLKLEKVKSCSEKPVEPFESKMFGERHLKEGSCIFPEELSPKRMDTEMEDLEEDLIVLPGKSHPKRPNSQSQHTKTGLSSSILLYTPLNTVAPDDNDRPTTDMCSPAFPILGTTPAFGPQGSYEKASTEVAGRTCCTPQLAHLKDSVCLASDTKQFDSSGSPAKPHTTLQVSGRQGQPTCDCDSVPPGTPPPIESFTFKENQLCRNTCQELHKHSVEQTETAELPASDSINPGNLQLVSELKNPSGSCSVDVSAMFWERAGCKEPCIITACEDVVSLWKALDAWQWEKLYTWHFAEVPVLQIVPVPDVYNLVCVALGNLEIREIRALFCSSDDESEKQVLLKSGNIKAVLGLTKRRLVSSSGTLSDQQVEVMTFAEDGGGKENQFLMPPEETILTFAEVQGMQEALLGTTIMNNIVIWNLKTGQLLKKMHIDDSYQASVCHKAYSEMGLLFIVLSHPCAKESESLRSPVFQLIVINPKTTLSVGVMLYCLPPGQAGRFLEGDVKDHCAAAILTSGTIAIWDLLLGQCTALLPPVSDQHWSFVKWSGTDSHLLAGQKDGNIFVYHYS
# T2: BARD1-V5 WT (BRCA1-Associated RING Domain protein 1) (UniProt Q99728 1-777)
# T2 construct: BARD1 (BRCA1-Associated RING Domain protein 1), wild type; also called pcDNA6.2-BARD1-V5; source: HEK293FT, transiently co-transfected, in lysate
# T2 sequence (looked up): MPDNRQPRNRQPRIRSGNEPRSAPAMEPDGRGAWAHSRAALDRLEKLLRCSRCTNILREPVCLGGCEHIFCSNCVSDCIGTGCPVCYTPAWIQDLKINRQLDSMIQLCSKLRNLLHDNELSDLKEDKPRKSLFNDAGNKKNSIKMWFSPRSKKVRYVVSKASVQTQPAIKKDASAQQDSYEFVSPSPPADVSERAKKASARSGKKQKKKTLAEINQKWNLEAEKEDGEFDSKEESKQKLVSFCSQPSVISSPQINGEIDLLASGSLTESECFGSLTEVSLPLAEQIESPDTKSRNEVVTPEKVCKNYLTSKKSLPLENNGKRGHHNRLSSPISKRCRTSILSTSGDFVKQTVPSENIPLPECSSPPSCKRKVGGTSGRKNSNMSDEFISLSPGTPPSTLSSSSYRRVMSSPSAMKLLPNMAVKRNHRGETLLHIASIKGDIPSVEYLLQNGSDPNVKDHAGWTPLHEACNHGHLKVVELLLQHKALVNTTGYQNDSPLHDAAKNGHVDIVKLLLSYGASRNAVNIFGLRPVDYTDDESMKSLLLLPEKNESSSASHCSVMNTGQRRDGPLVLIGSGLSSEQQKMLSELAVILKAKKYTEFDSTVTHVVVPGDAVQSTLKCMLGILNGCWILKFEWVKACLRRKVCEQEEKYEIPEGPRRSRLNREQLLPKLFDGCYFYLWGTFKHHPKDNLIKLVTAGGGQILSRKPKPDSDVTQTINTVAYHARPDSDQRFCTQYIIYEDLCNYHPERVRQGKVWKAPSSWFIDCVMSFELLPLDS
# B1: BRCA1 p.Arg504Cys (full-length, mCherry-tagged) (natural protein, human, UniProt P38398 1-1863, looked up)
# chain: MDLSALRVEEVQNVINAMQKILECPICLELIKEPVSTKCDHIFCKFCMLKLLNQKKGPSQCPLCKNDITKRSLQESTRFSQLVEELLKIICAFQLDTGLEYANSYNFAKKENNSPEHLKDEVSIIQSMGYRNRAKRLLQSEPENPSLQETSLSVQLSNLGTVRTLRTKQRIQPQKTSVYIELGSDSSEDTVNKATYCSVGDQELLQITPQGTRDEISLDSAKKAACEFSETDVTNTEHHQPSNNDLNTTEKRAAERHPEKYQGSSVSNLHVEPCGTNTHASSLQHENSSLLLTKDRMNVEKAEFCNKSKQPGLARSQHNRWAGSKETCNDRRTPSTEKKVDLNADPLCERKEWNKQKLPCSENPRDTEDVPWITLNSSIQKVNEWFSRSDELLGSDDSHDGESESNAKVADVLDVLNEVDEYSGSSEKIDLLASDPHEALICKSERVHSKSVESNIEDKIFGKTYRKKASLPNLSHVTENLIIGAFVTEPQIIQERPLTNKLKCKRRPTSGLHPEDFIKKADLAVQKTPEMINQGTNQTEQNGQVMNITNSGHENKTKGDSIQNEKNPNPIESLEKESAFKTKAEPISSSISNMELELNIHNSKAPKKNRLRRKSSTRHIHALELVVSRNLSPPNCTELQIDSCSSSEEIKKKKYNQMPVRHSRNLQLMEGKEPATGAKKSNKPNEQTSKRHDSDTFPELKLTNAPGSFTKCSNTSELKEFVNPSLPREEKEEKLETVKVSNNAEDPKDLMLSGERVLQTERSVESSSISLVPGTDYGTQESISLLEVSTLGKAKTEPNKCVSQCAAFENPKGLIHGCSKDNRNDTEGFKYPLGHEVNHSRETSIEMEESELDAQYLQNTFKVSKRQSFAPFSNPGNAEEECATFSAHSGSLKKQSPKVTFECEQKEENQGKNESNIKPVQTVNITAGFPVVGQKDKPVDNAKCSIKGGSRFCLSSQFRGNETGLITPNKHGLLQNPYRIPPLFPIKSFVKTKCKKNLLEENFEEHSMSPEREMGNENIPSTVSTISRNNIRENVFKEASSSNINEVGSSTNEVGSSINEIGSSDENIQAELGRNRGPKLNAMLRLGVLQPEVYKQSLPGSNCKHPEIKKQEYEEVVQTVNTDFSPYLISDNLEQPMGSSHASQVCSETPDDLLDDGEIKEDTSFAENDIKESSAVFSKSVQKGELSRSPSPFTHTHLAQGYRRGAKKLESSEENLSSEDEELPCFQHLLFGKVNNIPSQSTRHSTVATECLSKNTEENLLSLKNSLNDCSNQVILAKASQEHHLSEETKCSASLFSSQCSELEDLTANTNTQDPFLIGSSKQMRHQSESQGVGLSDKELVSDDEERGTGLEENNQEEQSMDSNLGEAASGCESETSVSEDCSGLSSQSDILTTQQRDTMQHNLIKLQQEMAELEAVLEQHGSQPSNSYPSIISDSSALEDLRNPEQSTSEKAVLTSQKSSEYPISQNPEGLSADKFEVSADSSTSKNKEPGVERSSPSKCPSLDDRWYMHSCSGSLQNRNYPSQEELIKVVDVEEQQLEESGPHDLTETSYLPRQDLEGTPYLESGISLFSDDPESDPSEDRAPESARVGNIPSSTSALKVPQLKVAESAQSPAAAHTTDTAGYNAMEESVSREKPELTASTERVNKRMSMVVSGLTPEEFMLVYKFARKHHITLTNLITEETTHVVMKTDAEFVCERTLKYFLGIAGGKWVVSYFWVTQSIKERKMLNEHDFEVRGDVVNGRNHQGPKRARESQDRKIFRGLEICCYGPFTNMPTDQLEWMVQLCGASVVKELSSFTLGTGVHPIVVVQPDAWTEDNGFHAIGQMCEAPVVTREWVLDSVALYQCQELDTYLIPQIPHSHY
# notes: BRCA1, human, full-length, rare germline missense variant introduced in the WT plasmid; Made by site-directed mutagenesis of the plasmid of m1; also called c.1510C > T; source: HEK293FT, transiently co-transfected, in lysate
# B2: BRCA1 p.Leu523Val (full-length, mCherry-tagged) (natural protein, human, UniProt P38398 1-1863, looked up)
# chain: B1 chain with C504R, L523V
# notes: BRCA1, human, full-length, rare germline missense variant introduced in the WT plasmid; Made by site-directed mutagenesis of the plasmid of m1; also called c.1567T > G; source: HEK293FT, transiently co-transfected, in lysate
# B3: BRCA1 p.Glu575Lys (full-length, mCherry-tagged) (natural protein, human, UniProt P38398 1-1863, looked up)
# chain: B1 chain with C504R, E575K
# notes: BRCA1, human, full-length, rare germline missense variant introduced in the WT plasmid; Made by site-directed mutagenesis of the plasmid of m1; also called c.1723G > A; source: HEK293FT, transiently co-transfected, in lysate
# B4: BRCA1 p.Arg610Thr (full-length, mCherry-tagged) (natural protein, human, UniProt P38398 1-1863, looked up)
# chain: B1 chain with C504R, R610T
# notes: BRCA1, human, full-length, rare germline missense variant introduced in the WT plasmid; Made by site-directed mutagenesis of the plasmid of m1; also called c.1829G > C; source: HEK293FT, transiently co-transfected, in lysate
# B5: BRCA1 p.Ile925Val (full-length, mCherry-tagged) (natural protein, human, UniProt P38398 1-1863, looked up)
# chain: B1 chain with C504R, I925V
# notes: BRCA1, human, full-length, rare germline missense variant introduced in the WT plasmid; Made by site-directed mutagenesis of the plasmid of m1; also called c.2773A > G; source: HEK293FT, transiently co-transfected, in lysate
# B6: BRCA1 p.Thr1256Ile (full-length, mCherry-tagged) (natural protein, human, UniProt P38398 1-1863, looked up)
# chain: B1 chain with C504R, T1256I
# notes: BRCA1, human, full-length, rare germline missense variant introduced in the WT plasmid; Made by site-directed mutagenesis of the plasmid of m1; also called c.3767C > T; source: HEK293FT, transiently co-transfected, in lysate
# Target: T1, Flag-PALB2 WT (Partner and Localiser of …)
# Assay: co-IP; HEK293FT co-transfected with BRCA1 WT or variant and Flag-PALB2; 2 mg lysate protein incubated 90 min at 4 °C with Flag antibody coupled to Dynabeads Protein G; non-denaturing elution; BRCA1 in the IP detected by anti-BRCA1 blot, normalised to the anti-Flag signal, % of WT
# Details: partners not purified
row,Binder,Co-IP PALB2 (% of WT)
1,B1,65 % of WT
2,B2,73 % of WT
3,B3,66 % of WT
4,B4,56 % of WT
5,B5,88 % of WT
6,B6,79 % of WT

# Target: T2, BARD1-V5 WT (BRCA1-Associated RING …)
# Assay: co-IP; HEK293FT co-transfected with BRCA1 WT or variant and BARD1-V5; 2 mg lysate protein incubated 90 min at 4 °C with V5 antibody coupled to Dynabeads Protein G; non-denaturing elution; BRCA1 in the IP detected by anti-BRCA1 blot, normalised to the anti-V5 signal, % of WT
# Details: partners not purified
row,Binder,Co-IP BARD1 (% of WT)
1,B1,63 % of WT
2,B2,71 % of WT
3,B3,77 % of WT
4,B4,81 % of WT
5,B5,97 % of WT
6,B6,55 % of WT
